Experimental data taken from paper doi:10.1101/2023.01.23.525163.

Target: His-caltubin-Tat (cell-penetrating caltubin) (Lymnaea stagnalis | HIV)
Experiment: ITC

**Q.** For Ac-LDHKFDLMYAKRAFV-NH2 [L391 peptide (synthetic, TUBA1 L391-V405)], which Kd is on record?
**A.** The Kd was 3.42 µM.
